Biological target: the molecule itself
Assay: crystal structure; hanging drop vapor diffusion at 4°C, 0.1 M Tris pH 8.5, 0.3 M magnesium formate dihydrate; SAD phasing with seleno-methionine protein; native data to 3.2 Å

B1: MOM1 fragment corresponding to amino acid positions 1700 to 1814 (CMM2-containing protein fragment) (domain or fragment, Arabidopsis thaliana, UniProt Q9M658 1700-1814, looked up)
chain: HSAGVTALVPSLLNNGTEQIAVQPVPQIPFPVFNDPFLHELEKLRRESENSKKTFEEKKSILKAELERKMAEVQAEFRRKFHEVEAEHNTRTTKIEKDKNLVIMNKLLANAFLSK
notes: MORPHEUS' MOLECULE1 (MOM1), Arabidopsis thaliana, protein of 2001 amino acids, residues 1700-1814; residues 1729-1811 are ordered in the crystal; A seleno-methionine-containing form (E. coli strain 834) was used for phasing only; the 3.2 A data set is of the native protein; also called CMM2 protein fragment; CMM2 domain
B1 was tested, and the “stoichiometry N” value was 2.

From publication PMC3276543, “Structural Basis of Transcriptional Gene Silencing Mediated by Arabidopsis MOM1” (PLoS Genetics, 2012)
